Results taken from paper PMC4721548, “Conformational heterogeneity of the Roc domains in C. tepidum Roc–COR and implications for human LRRK2 Parkinson mutations” (Bioscience Reports, 2015).

B1: C. tepidum RocCOR (AA 412-946) C600R1 + Y558A (domain or fragment, Chlorobium tepidum, UniProt Q8KC98 412-946, looked up)
chain: DNPLESPPPEIVKQGKEAVRQYFQSIEEARSKGEALVHLQEIKVHLIGDGMAGKTSLLKQLIGETFDPKESQTHGLNVVTKQAPNIKGLENDDELKECLFHFWDFGGQEIMHASHQFFMTRSSVYMLLLDSRTDSNKHYWLRHIEKAGGKSPVIVVMNKIDENPSYNIEQKKINERFPAIENRFHRISCKNGDGVESIAKSLKSAVLHPDSIYGTPLAPSWIKVKEKLVEATTAQRYLNRTEVEKICNDSGITDPGERKTLLGYLNNLGIVLYFEALDLSEIYVLDPHWVTIGVYRIINSSKTKNGHLNTSALGYILNEEQIRCDEYDPAKNNKFTYTLLEQRYLLDIMKQFELCYDEGKGLFIIPSNLPTQIDNEPEITEGEPLRFIMKYDYLPSTIIPRLMIAMQHQILDRMQWRYGMVLKSQDHEGALAKVVAETKDSTITIAIQGEPRCKREYLSIIWYEIKKINANFTNLDVKEFIPLPGHPDELVEYKELLGLEKMGRDEYVSGKLEKVFSVSKMLDSVISKEERNKER
modifications: MTSSL spin label on the native cysteine at 600 (R1 side chain)
notes: Roco protein of Chlorobium tepidum, RocCOR tandem, AA 412-946; native Cys600 used for labelling; Y558 corresponds to Arg1441 of human LRRK2
B2: C. tepidum RocCOR (AA 412-946) C600R1, spin-labelled at the native cysteine 600 in the Roc domain (domain or fragment, Chlorobium tepidum, UniProt Q8KC98 412-946, looked up)
chain: DNPLESPPPEIVKQGKEAVRQYFQSIEEARSKGEALVHLQEIKVHLIGDGMAGKTSLLKQLIGETFDPKESQTHGLNVVTKQAPNIKGLENDDELKECLFHFWDFGGQEIMHASHQFFMTRSSVYMLLLDSRTDSNKHYWLRHIEKYGGKSPVIVVMNKIDENPSYNIEQKKINERFPAIENRFHRISCKNGDGVESIAKSLKSAVLHPDSIYGTPLAPSWIKVKEKLVEATTAQRYLNRTEVEKICNDSGITDPGERKTLLGYLNNLGIVLYFEALDLSEIYVLDPHWVTIGVYRIINSSKTKNGHLNTSALGYILNEEQIRCDEYDPAKNNKFTYTLLEQRYLLDIMKQFELCYDEGKGLFIIPSNLPTQIDNEPEITEGEPLRFIMKYDYLPSTIIPRLMIAMQHQILDRMQWRYGMVLKSQDHEGALAKVVAETKDSTITIAIQGEPRCKREYLSIIWYEIKKINANFTNLDVKEFIPLPGHPDELVEYKELLGLEKMGRDEYVSGKLEKVFSVSKMLDSVISKEERNKER
modifications: MTSSL spin label on the native cysteine at 600 (R1 side chain)
notes: Roco protein of Chlorobium tepidum, RocCOR tandem, AA 412-946; native Cys600 used for labelling; Forms a homodimer; the row is the protomer with itself; also called C600R1^Roc
B3: C. tepidum RocCOR (AA 412-946) C600R1 + L487A (domain or fragment, Chlorobium tepidum, UniProt Q8KC98 412-946, looked up)
chain: DNPLESPPPEIVKQGKEAVRQYFQSIEEARSKGEALVHLQEIKVHLIGDGMAGKTSLLKQLIGETFDPKESQTHGANVVTKQAPNIKGLENDDELKECLFHFWDFGGQEIMHASHQFFMTRSSVYMLLLDSRTDSNKHYWLRHIEKYGGKSPVIVVMNKIDENPSYNIEQKKINERFPAIENRFHRISCKNGDGVESIAKSLKSAVLHPDSIYGTPLAPSWIKVKEKLVEATTAQRYLNRTEVEKICNDSGITDPGERKTLLGYLNNLGIVLYFEALDLSEIYVLDPHWVTIGVYRIINSSKTKNGHLNTSALGYILNEEQIRCDEYDPAKNNKFTYTLLEQRYLLDIMKQFELCYDEGKGLFIIPSNLPTQIDNEPEITEGEPLRFIMKYDYLPSTIIPRLMIAMQHQILDRMQWRYGMVLKSQDHEGALAKVVAETKDSTITIAIQGEPRCKREYLSIIWYEIKKINANFTNLDVKEFIPLPGHPDELVEYKELLGLEKMGRDEYVSGKLEKVFSVSKMLDSVISKEERNKER
modifications: MTSSL spin label on the native cysteine at 600 (R1 side chain)
notes: Roco protein of Chlorobium tepidum, RocCOR tandem, AA 412-946; native Cys600 used for labelling; L487 corresponds to Ile1371 of human LRRK2

Target: the molecule itself
Experiment: DEER (pulse EPR) inter-spin distance measurement; single-site MTSSL-labelled RocCOR, 50-100 uM protein, frozen at 50 K, X band; 150 mM NaCl, 30 mM Tris/HCl, 5 mM MgCl2, pH 7.5, 5% glycerol; apo, 1 mM GppNHp, GDP-AlFx (1 mM GDP, 1 mM AlCl3, 10 mM NaF) or 1 mM GDP; distances between the two symmetry-related labels of the dimer

Binding result, binds:
B1
B2
B3
